Measurements reported in patent publication US5458874A, “Method of increasing monocyte chemotaxis with CAP37 and monocyte chemotactic portions thereof” (Emory University, priority 1992, dated 1995).
Entries after “also recorded” stand apart in the source; their conditions may differ.

Experiments:
human monocytes = experiment: Monocyte chemotaxis, modified Boyden chamber technique; assay type: cell-based; conditions: for Distance migrated in μm: chemoattractant conc. 10^-9 M
Experimental: (§1) Chemotaxis was measured using the modified Boyden chamber technique (Snyderman et al.). The leading front method (Zigmond et al.) was used to assess migration of monocytes and lymphocytes through a 8 μm filter (Millipore Corporation, Bedford, Mass.). PMN chemotaxis was measured using a 3 μm filter (Millipore). The purified CAP37 protein (Example 1) used in chemotaxis assays were endotoxin-free as determined by the Limulus Amoebocyte Lysate Assay (Whittaker Bioproducts, Inc., Walkersville, Md.). The dilutions of CAP37 and N-formyl-methionyl-leucyl-phenylalanine (FMLP) were made in Geys buffer (Gibco) containing 2% endotoxin-free bovine serum albumin (BSA). Geys buffer containing 2% BSA served as the negative control, and a […] solution of FMLP as the positive control.
(§2) The chambers were incubated in a humidified atmosphere (6.2% CO2) for 2 hours when testing monocytes and lymphocytes, and for 30 minutes when testing PMNs. The filters were then removed and processed as previously described (Snyderman et al.). The cells were viewed using oil immersion and the distance the cells had migrated into the filter was determined over five different fields on the same slide (Zigmond et al.). Triplicate assays were performed for each experimental point.
The three peptides were tested for chemotactic activity towards monocytes using the modified Boyden Chamber technique described in Example 2. The monocyte chemotactic activity of each peptide fragment at concentrations ranging from 10^-7 to 10^-13 M was compared with Geys buffer (negative control), FMLP 10^-8 M (positive control) and purified CAP37 10^-9 M (positive control). […] The effect of peptide 1 on monocyte chemotaxis is illustrated in Table 2 while the effect of peptide 3 on monocyte chemotaxis is illustrated in Table 3.

PMN = PMN chemotaxis, modified Boyden chamber technique; assay type: cell-based, human; conditions: range employed in these experiments
Experimental: as §1, §2

lymphocytes = experiment: Lymphocyte chemotaxis, modified Boyden chamber technique; assay type: cell-based, human; conditions: range employed in these experiments
Experimental: as §1, §2

rabbit monocytes = experiment: Rabbit monocyte chemotaxis; assay type: cell-based; conditions: 1000 ng/ml (2.7×10^-8 M)
Experimental: Peripheral blood mononuclear cells from adult female rabbits, were separated on a 61% PERCOLL (Pharmacia) gradient (Chambers et al.). This technique separated the mononuclear cells from the RBC and PMNs. No further separation of monocytes from lymphocytes was undertaken with the rabbit blood.
as §1
as §2, with “The filters were then removed and processed as previously described (Snyderman et al.).” left out, “Triplicate assays were performed for each experimental point.” left out

monocytes = experiment: Checkerboard assay (chemokinesis); assay type: cell-based, human
[1] = tested on: Lipid A from S. minnesota R595; Lipid A from S. typhimurium Re mutant; experiment: ELISA, binding of CAP37 to Lipid A; conditions: CAP37 at 120 ng/well; Lipid A 0 to 50 μg/ml
Experimental: The LPS from S. minnesota wild type, S. minnesota Re mutant, Lipid A from S. minnesota R595, and Lipid A from S. typhimurium Re mutant were applied to microtiter wells at concentrations ranging from 0 to 50 μg/ml and incubated overnight. The trays were then incubated with CAP37 at 120 ng/well for 1 hour at 37° C. The next incubation was with a rabbit antiserum against CAP37 (1:400 dilution) and the color development was as previously described (Pereira et al., 1989) and the absorbance was read at 492 nm.

Re LPS from Salmonella = experiment: Neutralization of LPS activity, limulus amebocyte lysate (LAL) assay, Re LPS; assay type: biochemical
Experimental: Further, the neutralization of LPS activity, as assayed by the limulus amebocyte lysate (LAL) assay, by CAP37 was measured. CAP37 was diluted to the desired concentrations (from 6.2 ng/ml to 500 ng/ml) in geys buffered saline pH 7 (GIBCO). To this wild type LPS (RIBI IMMUNOCHEM) or Re LPS from Salmonella (David Morrison, Kansas Medical Center) was added so that the final concentrations were 0.1, 0.5, 1.0 and 2.0 ng/ml LPS. The tubes were incubated at 37° C. for between 30 to 60 minutes and then assayed in the chromogenic LAL assay, using polymyxin E as a control.
As discussed in Example 11, peptides can be screened for lipopolysaccharide neutralizing capacity using the LAL assay also. The CAP37 peptide was diluted to the desired concentrations (from 125 ng/ml to 4000 ng/ml) in geys buffered saline pH 7 (GIBCO). To this is added the wild type LPS (RIBI IMMUNOCHEM) or Re LPS from Salmonella (David Morrison, Kansas Medical Center) so that the final concentration is 0.1, 0.5, and 1.0 ng/ml LPS. The tubes were incubated at 37° C. for between 30 to 60 minutes and then assayed in the chromogenic LAL assay.

Salmonella SH7426 = experiment: Bactericidal assay; assay type: cell-based
Experimental: (§3) An overnight culture of Salmonella typhimurium (or other microorganism of interest, if desired) is set up by inoculating one colony in 5 ml of LB Broth (LB Broth consists of 10 g BACTO tryptone (DIFCO), 5 g BACFO yeast (DIFCO) and 5 g NaCl made up to 1 L with endotoxin free water; add 15 g of BACTO agar (DIFCO) to this broth to make LB agar (autoclave). The culture is incubated at 37° C. with rotation. 100 μl of this overnight culture is then transferred to 5 ml of fresh LB Broth and incubated at 37° C. with rotation for 2 hours. Four ml of this log phase culture is then transferred to a sterile cuvette and the optical density is read at […]. Dilutions of the microorganism are then made in tryptone saline (5 g BAOTO tryptone (DIFCO) and 5 g NaCl made up to 1 L with endotoxin free water, pH 5.5) to give a final concentration of 5×10^3 organisms/ml (an O.D. reading of 0.25 at 520 mm is equivalent to 1×10^8 organisms/ml). The microorganisms are placed at 4° C. until ready to be used.
(§4) The stock solutions of peptides are stored at -20° C. at concentrations of 1 mg/ml of endotoxin-free water. The peptide is diluted out in tryptone saline to the desired concentration. 100 μl of the peptide is added to each well of the microtitre plate (Corning) and then 100 μl of the bacterial suspension (well vortexed) is added. Each assay point is set up in triplicate. 100 μl of a control, consisting of bacteria and tryptone saline (T=0) in the absence of peptide is plated out on LB agar plates. The microliter plate is then incubated at 37° C. for 1 hour. At the end of the incubation time, 100 μl of each sample is plated out on LB agar plates. The T=60 control (consisting of bacteria and tryptone saline in the absence of peptide) is plated out last. The plates are incubated overnight, and the number of colony forming units (CFU) are determined.
(§5) The % killed is determined as follows: [formula]

Salmonella SH7518 = experiment: Bactericidal assay; assay type: cell-based, Salmonella typhimurium; conditions: Salmonella SH7518
Experimental: as §3, §4, §5

Salmonella LT2 = conditions: (Shafer, 1986); cited from earlier work
P. mirabilis Re45 = conditions: (Shafer, 1986); cited from earlier work

B1: CAP37: granule-associated cationic protein (mol. wt. 37,000 daltons) from human PMN, 222 amino acid mature protein (protein)
chain: IVGGRKARPRQFPFLASIQNQGRHFCGGALIHARFVMTAASCFQSQNPGVSTVVLGAYDLRRRERQSRQTFSISSMSENGYDPQQNLNDLMLLQLDREANLTSSVTILPLPLQNATVEAGTRCQVAGWGSQRSGGRLSRFPRFVNVTVTPEDQCRPNNVCTGVLTRRGGICNGDGGTPLVCEGLAHGVASFSLGPCGRGPDFFTRVALFRDWIDGVLNNPGP
In the case of B1, the “Distance migrated in μm” value (human monocytes; Table 2) is reported as 78.4 μm, the “Distance migrated in μm” value (human monocytes; Table 3) is reported as 73.6 μm and the “monocyte chemotactic activity (in words)” value (human monocytes; modified Boyden chamber) is reported as “as effective as FMLP; also recorded: strong chemotactic properties”. For the same molecule, the “effect on PMN chemotaxis” value (PMN) was “did not have any effect”, the “effect on lymphocyte chemotaxis” value (lymphocytes) was “did not have any effect” and the “chemotactic for rabbit monocytes” value (rabbit monocytes) was “chemotactic”. The “chemokinetic effect on monocytes” value (monocytes) was “some chemokinetic effect”, the “binding to Lipid A (ELISA)” value [1] was “capable of binding LPS and, in particular, Lipid A; also recorded: able to bind to Lipid A better than wild type LPS” and the “neutralization of Re LPS activity (LAL assay)” value (Re LPS from Salmonella) was “significantly neutralized LPS activity”. The “% survival with CAP 37” value (Salmonella SH7426) was 64.3%, the “% survival with CAP 37” value (Salmonella SH7518) was 10.9% and the “% survival with CAP 37” value (Salmonella LT2) was 43%. For the same molecule, the “% survival with CAP 37” value (P. mirabilis Re45) was 100%.
